Reference: patent publication US7109167
No end group written: not given here. Oregon Green (5-isomer) = Oregon Green fluorescent label, 5-isomer

Columns and labels:
[1] = target: T1, NP-1/Fc (Neuropilin-1/Fc, R&D Systems); assay: competition of 125I-VEGF165 binding to plate-coated NP-1/Fc
T1 construct: Bought reagent; also called Npn-1
Procedure: An assay buffer consisting of Hank's Balanced Salt Solution (HBSS), 25 mM HEPES, and 0.1% BSA, pH 7.4 was used, and for all experiments, Assay volume per well was 75 µl. Plates (Nunc MaxiSorp white opaque Microtiter plate [C-bottom, 437796]) were coated by incubating the wells with 75 µl of a solution containing 3 µlg/mL NP-1/Fc in D-PBS/0.1% NaAzide overnight at 4° C. after covering with sealing tape (Dynex, VWR Cat. No. 62402-931). The next day all wells, even control wells lacking NP-1/Fc, were blocked 2 hrs with blocking buffer (1% BSA in D-PBS with 0.05% v/v Tween-20) then washed 4× with PBST (D-PBS/0.05% v/v Tween-20) before starting the assay. All points were derived from triplicate wells, and for each set of replicates in NP-1/Fc-coated wells, a companion set in the absence of the receptor was included. […] After addition of the appropriate solutions, microtiter plates were incubated at 4° C. for 2 hours. Following the incubation, plates were hand-washed 5 times with D-PBS containing 0.05% Tween-20 and 0.1% BSA. The plates were blotted dry and 25 µl deionized water and 100 µl scintillation fluid (Optiphase SuperMix, Wallac) were added to each well.

[2] = target: T1, NP-1/Fc (Neuropilin-1/Fc, R&D Systems); assay: fluorescence polarization, labeled ligand (5-20 nM) titrated with NP-1/Fc, 37 °C
Procedure: FP values (mP) for each substrate was measured by titrating the ligand (5–20 nM) with receptor protein using a Jolley Research and Consulting FPM-1 fluorescence Polarization analyzer. In each of these experiments the observed polarization values were plotted against receptor concentration. The mP values for 100% binding of tracer labeled ligand to receptor protein was calculated using the software provided by the vendor.
Figure 3: FIG. 3: Binding of TKPPR (SEQ ID NO: 2) derivatives with NP-1/Fc by Fluorescence Polarization. The indicated Oregon Green-labeled derivatives were incubated with increasing concentrations of NP-1 and polarization was measured. […] Figure 4: FIG. 4: Binding of TKPPR (SEQ ID NO: 2) derivatives with KDR-Fc by FP.

[3] = target: T1, NP-1/Fc (Neuropilin-1/Fc, R&D Systems); assay: fluorescence polarization competition against labeled BRU-326 on NP-1/Fc

T1 sequence (Q9QWJ9 22-855): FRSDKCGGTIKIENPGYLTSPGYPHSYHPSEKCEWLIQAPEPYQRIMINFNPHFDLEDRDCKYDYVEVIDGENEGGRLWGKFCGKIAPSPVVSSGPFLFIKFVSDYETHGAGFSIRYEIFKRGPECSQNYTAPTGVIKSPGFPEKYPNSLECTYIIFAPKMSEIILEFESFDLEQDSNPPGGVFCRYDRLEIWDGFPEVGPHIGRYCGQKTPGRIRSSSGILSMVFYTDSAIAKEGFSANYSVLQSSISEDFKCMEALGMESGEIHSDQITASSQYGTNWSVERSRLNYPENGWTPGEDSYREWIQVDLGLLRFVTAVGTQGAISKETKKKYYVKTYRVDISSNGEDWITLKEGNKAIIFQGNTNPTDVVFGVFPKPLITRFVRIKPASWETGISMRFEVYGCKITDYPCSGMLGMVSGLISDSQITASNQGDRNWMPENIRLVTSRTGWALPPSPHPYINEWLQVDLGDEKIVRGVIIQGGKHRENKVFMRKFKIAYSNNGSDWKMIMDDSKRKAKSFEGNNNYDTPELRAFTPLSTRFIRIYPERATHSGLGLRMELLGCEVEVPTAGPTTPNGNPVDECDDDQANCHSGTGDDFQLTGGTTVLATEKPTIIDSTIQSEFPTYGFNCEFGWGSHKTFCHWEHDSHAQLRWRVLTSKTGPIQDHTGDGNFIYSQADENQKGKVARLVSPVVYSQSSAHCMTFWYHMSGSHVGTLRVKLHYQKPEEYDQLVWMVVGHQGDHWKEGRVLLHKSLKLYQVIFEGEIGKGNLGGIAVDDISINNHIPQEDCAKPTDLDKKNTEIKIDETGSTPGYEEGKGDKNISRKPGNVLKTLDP

| IC50 [1] [nM] | Kd [2] [nM] | IC50 [3] [µM] | Binder |
| --- | --- | --- | --- |
| 30000 | – | – | {Oregon Green (5-isomer)}-GTKPPR-OH (also called OG-TKPPR; OG-TKPPR monomer) [BRU-239, Oregon Green (5-isomer)-GTKPPR-OH] |
| 130 | 25 to 50 | – | TKPPR-OH (not fully specified (N-terminus); printed as OG-(TKPPR)4; also: tetramer: four TKPPR chains joined via branched tetra-acid scaffold, free C-terminal Arg on each arm; also called tetrameric TKPPR) [TKPPR tetramer BRU-326, OG-(TKPPR)4] |
| 3000 | – | – | TKPPR (not fully specified (N-terminus); printed as OG-(TKPPR)2; also: dimer on branched scaffold with one Oregon Green label) [TKPPR dimer BRU-317, OG-(TKPPR)2] |
| 0.5 | – | 0.2 | VEGF165 (ligand, UniProt P15692-4 27-191, looked up, 125I label on the radioligand form, Labelled and unlabelled forms and the different suppliers are kept as one molecule; also called unlabeled VEGF165) APMAEGGGQNHHEVVKFMDVYQRSYCHPIETLVDIFQEYPDEIEYIFKPSCVPLMRCGGCCNDEGLECVPTEESNITMQIMRIKPHQGQHIGEMSFLQHNKCECRPKKDRARQENPCGPCSERRKHLFVQDPQTCKCSCKNTDSRCKARQLELNERTCRCDKPRR |
| 43000 | – | 80 | TKPPR-OH (also called BRU-95; TKPPR-OH) [TKPPR (L-threonyl-L-lysyl-L-prolyl-L-prolyl-L-arginine), free monomeric peptide] |
